Drawing on article PMC3804487, “DNA Aptamers Selectively Target Leishmania infantum H2A Protein”, this text covers Kd for two molecules.

The target of the series is T1, rLiH2A (histone H2A) (Leishmania infantum, UniProt Q9BJC8 1-132).
T1 sequence: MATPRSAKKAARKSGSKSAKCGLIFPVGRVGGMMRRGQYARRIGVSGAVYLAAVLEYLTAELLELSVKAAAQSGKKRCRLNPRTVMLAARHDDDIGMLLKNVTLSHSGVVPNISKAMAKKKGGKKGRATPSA
The experiment in a line: ELONA. The note with it: protein: recombinant; tags: His (Ni-NTA purified).

B1: AptLiH2A#1 (structured_DNA)
DNA: GCGGATGAAGACTGGTGTTGTGCAATGATTTTTCCGGTTGACCAGGTAGGAATTGTAGGCCCTAAATACGAGCAAC
For the molecule B1, the Kd (in general, the constant that tells how readily two partners part at equilibrium) turned out to be 0.96 ± 0.17 nM.

B2: AptLiH2A#2 (structured_DNA)
DNA: GCGGATGAAGACTGGTGTGGAGTCTACCCTGTTTTCTAGTCTGCCATCCCTATCCCATGCCCTAAATACGAGCAAC
Take B2: the dissociation constant (Kd) came to 1.16 ± 0.28 nM.
